From US20250262210A1 (TRUSTEES OF COLUMBIA UNIVERSITY IN THE CITY OF NEW YORK, published 2025)

Biological target: T1, RANBP6 (human, UniProt O60518 2-1105)
T1 sequence (looked up): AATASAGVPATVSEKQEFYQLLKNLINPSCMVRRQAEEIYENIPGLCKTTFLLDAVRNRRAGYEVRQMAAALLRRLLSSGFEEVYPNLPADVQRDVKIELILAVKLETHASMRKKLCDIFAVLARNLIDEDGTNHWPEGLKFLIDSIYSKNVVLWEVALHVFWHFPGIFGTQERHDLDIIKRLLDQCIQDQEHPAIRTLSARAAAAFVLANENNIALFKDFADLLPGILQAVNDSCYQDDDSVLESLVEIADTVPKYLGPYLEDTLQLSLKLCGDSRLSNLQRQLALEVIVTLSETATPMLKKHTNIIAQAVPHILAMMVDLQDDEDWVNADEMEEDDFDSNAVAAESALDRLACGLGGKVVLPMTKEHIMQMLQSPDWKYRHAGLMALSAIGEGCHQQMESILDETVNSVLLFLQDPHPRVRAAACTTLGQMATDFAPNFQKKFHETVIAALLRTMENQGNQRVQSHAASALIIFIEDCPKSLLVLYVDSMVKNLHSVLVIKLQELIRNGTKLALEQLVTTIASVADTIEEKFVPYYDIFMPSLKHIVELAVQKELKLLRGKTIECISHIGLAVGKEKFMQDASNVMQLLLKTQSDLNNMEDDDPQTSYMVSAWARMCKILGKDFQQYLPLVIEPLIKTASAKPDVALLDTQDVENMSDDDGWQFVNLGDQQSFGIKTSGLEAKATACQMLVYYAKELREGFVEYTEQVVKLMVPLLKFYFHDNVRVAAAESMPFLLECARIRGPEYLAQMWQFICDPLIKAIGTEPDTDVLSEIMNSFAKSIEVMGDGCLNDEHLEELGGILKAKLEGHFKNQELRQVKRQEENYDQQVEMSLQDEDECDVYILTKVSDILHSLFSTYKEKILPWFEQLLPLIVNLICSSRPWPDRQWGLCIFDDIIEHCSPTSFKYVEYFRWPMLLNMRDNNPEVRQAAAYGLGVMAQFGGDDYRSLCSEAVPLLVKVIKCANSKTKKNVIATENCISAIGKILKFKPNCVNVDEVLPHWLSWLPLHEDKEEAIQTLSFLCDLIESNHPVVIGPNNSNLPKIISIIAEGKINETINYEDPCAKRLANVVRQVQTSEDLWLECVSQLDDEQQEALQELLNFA
Experiment: IP/MS, LZTR1 wild type-FLAG, U87
How it was run: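 Extracted peptides in 3% acetonitrile/0.1% formic acid ran on a 50 cm C18 column into an Orbitrap Fusion, with MaxQuant identification and spectral counting.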

B1: LZTR1-FLAG (other, human, UniProt Q8N653 1-840, looked up)
chain: MAGPGSTGGQIGAAALAGGARSKVAPSVDFDHSCSDSVEYLTLNFGPFETVHRWRRLPPCDEFVGARRSKHTVVAYKDAIYVFGGDNGKTMLNDLLRFDVKDCSWCRAFTTGTPPAPRYHHSAVVYGSSMFVFGGYTGDIYSNSNLKNKNDLFEYKFATGQWTEWKIEGRLPVARSAHGATVYSDKLWIFAGYDGNARLNDMWTIGLQDRELTCWEEVAQSGEIPPSCCNFPVAVCRDKMFVFSGQSGAKITNNLFQFEFKDKTWTRIPTEHLLRGSPPPPQRRYGHTMVAFDRHLYVFGGAADNTLPNELHCYDVDFQTWEVVQPSSDSEVGGAEVPERACASEEVPTLTYEERVGFKKSRDVFGLDFGTTSAKQPTQPASELPSGRLFHAAAVISDAMYIFGGTVDNNIRSGEMYRFQFSCYPKCTLHEDYGRLWESRQFCDVEFVLGEKEECVQGHVAIVTARSRWLRRKITQARERLAQKLEQEAAPVPREAPGVAAGGARPPLLHVAIREAEARPFEVLMQFLYTDKIKYPRKGHVEDVLLIMDVYKLALSFQLCRLEQLCRQYIEASVDLQNVLVVCESAARLQLSQLKEHCLNFVVKESHFNQVIMMKEFERLSSPLIVEIVRRKQQPPPRTPLDQPVDIGTSLIQDMKAYLEGAGAEFCDITLLLDGHPRPAHKAILAARSSYFEAMFRSFMPEDGQVNISIGEMVPSRQAFESMLRYIYYGEVNMPPEDSLYLFAAPYYYGFYNNRLQAYCKQNLEMNVTVQNVLQILEAADKTQALDMKRHCLHIIVHQFTKVSKLPTLRSLSQQLLLDIIDSLASHISDKQCAELGADI
notes: Expressed in HEK 293T, HeLa or U87 cells; used as cell lysate; also called LZTR1 wild type-FLAG; LZTR1 WT; not shown: FLAG tag at the C-terminus
- binding result: binds
